Measurements reported in publication PMC10955490.

Experiments:
SlERF36 [1] = target: T1, SlERF36 (Solanum lycopersicum (tomato), UniProt A0A3Q7IBC2 1-221); assay: competition
SlERF36 [2] = target: T1, SlERF36; assay: EMSA

B1: SlGA2ox3 promoter GCC-box unlabelled competitor (dsDNA)
DNA 1: ATGCCCCCATCTGCCGCCCCTTCATATTTC
DNA 2: GAAATATGAAGGGGCGGCAGATGGGGGCAT
SlERF36 [1]
  binding result: binds

B2: SlGA2ox3 promoter GCC-box probe (dsDNA)
DNA 1: B1 DNA 1
DNA 2: B1 DNA 2
SlERF36 [2]
  binding result: binds

B3: SlGA2ox3 promoter mutated probe (dsDNA)
DNA 1: ATGCCCCCATCTAAAAAACCTTCATATTTC
DNA 2: GAAATATGAAGGTTTTTTAGATGGGGGCAT
SlERF36 [2]
  binding result: no binding
